Experimental data taken from patent US20220041718A1 (AUTOLUS, published 2022).
Residue numbers refer to the chain shown, from its start. Names and notes keep the numbering of the source.

B1: hJovi-1 variant IgG, VH T28K, Y32F, A100N, N103F; VL N35K (antibody, V domains shown)
VH: QVQLVQSGAEVKKPGASVKVSCKASGYKFTGFVMHWVRQAPGQGLEWMGFINPYNDDIQSNERFRGRVTMTRDTSISTAYMELSRLRSDDTAVYYCARGNGYFFDGAYRFFDFWGQGTMVTVSS
VL: DIVMTQSPLSLPVTPGEPASISCRSSQRLVHSNGKTYLHWYLQKPGQSPRLLIYRVSNRFPGVPDRFSGSGSGTDFTLKISRVEAEDVGVYYCSQSTHVPYTFGQGTKLEIK
notes: IgG format
B2: hJovi-1 variant IgG, VH T28K, Y32F, A100N, Y102L, N103M; VL N35R (antibody, V domains shown)
VH: B1 VH with Y102L, F103M
VL: B1 VL with K35R
notes: IgG format
B3: hJovi-1 variant IgG, VH T28K, Y32F, A100N, Y102F, N103M; VL N35F (antibody, V domains shown)
VH: B1 VH with Y102F, F103M
VL: B1 VL with K35F
notes: IgG format
B4: hJovi-1 variant IgG, VH T28K, Y32F, A100N; VL N35F (antibody, V domains shown)
VH: B1 VH with F103N
VL: B1 VL with K35F
notes: IgG format
B5: hJovi-1 variant IgG, VH T28K, Y32F, A100N, Y102F, N103M; VL N35R (antibody, V domains shown)
VH: B1 VH with Y102F, F103M
VL: B1 VL with K35R
notes: IgG format
B6: hJovi-1 variant IgG, VH T28K, Y32F, A100N, N103L; VL unmutated (antibody, V domains shown)
VH: B1 VH with F103L
VL: B1 VL with K35N
notes: IgG format
B7: hJovi-1 variant IgG, VH T28K, Y32F, R98K, A100N; VL unmutated (antibody, V domains shown)
VH: B1 VH with R98K, F103N
VL: B1 VL with K35N
notes: IgG format
B8: hJovi-1 variant IgG, VH T28K, Y32F, A100N, N103H; VL unmutated (antibody, V domains shown)
VH: B1 VH with F103H
VL: B1 VL with K35N
notes: IgG format
B9: hJovi-1 variant IgG, VH T28K, Y32F, A100N, N103Y; VL unmutated (antibody, V domains shown)
VH: B1 VH with F103Y
VL: B1 VL with K35N
notes: IgG format
B10: hJovi-1 variant IgG, VH T28K, Y32F, A100N, Y102F; VL unmutated (antibody, V domains shown)
VH: B1 VH with Y102F, F103N
VL: B1 VL with K35N
notes: IgG format
B11: hJovi-1 variant IgG, VH Y27N, T28K, Y32F, A100N; VL unmutated (antibody, V domains shown)
VH: B1 VH with Y27N, F103N
VL: B1 VL with K35N
notes: IgG format
B12: hJovi-1 variant IgG, VH T28K, Y32F, A100N, Y102F; VL N35R (antibody, V domains shown)
VH: B1 VH with Y102F, F103N
VL: B1 VL with K35R
notes: IgG format
B13: hJovi-1 variant IgG, VH Y27W, T28K, Y32F, A100N; VL unmutated (antibody, V domains shown)
VH: B1 VH with Y27W, F103N
VL: B1 VL with K35N
notes: IgG format
B14: hJovi-1 variant IgG, VH T28K, Y32F, A100N, Y102L, N103W; VL N35K (antibody, V domains shown)
VH: B1 VH with Y102L, F103W
VL: B1 VL
notes: IgG format
B15: hJovi-1 variant IgG, VH T28K, Y32F, A100N, N103M; VL N35R (antibody, V domains shown)
VH: B1 VH with F103M
VL: B1 VL with K35R
notes: IgG format
B16: hJovi-1 variant IgG, VH T28K, Y32F, A100N, N103F; VL unmutated (antibody, V domains shown)
VH: B1 VH
VL: B1 VL with K35N
notes: IgG format
B17: hJovi-1 variant IgG, VH T28K, Y32F, A100N, N103M; VL N35Y (antibody, V domains shown)
VH: B1 VH with F103M
VL: B1 VL with K35Y
notes: IgG format
B18: hJovi-1 variant IgG, VH T28K, Y32F, A100N; VL N35K (antibody, V domains shown)
VH: B1 VH with F103N
VL: B1 VL
notes: IgG format
B19: hJovi-1 variant IgG, VH T28K, Y32F, A100N; VL N35R (antibody, V domains shown)
VH: B1 VH with F103N
VL: B1 VL with K35R
notes: IgG format
B20: hJovi-1 variant IgG, VH V2K, T28K, Y32F, A100N; VL unmutated (antibody, V domains shown)
VH: B1 VH with V2K, F103N
VL: B1 VL with K35N
notes: IgG format
B21: hJovi-1 variant IgG, VH T28R, Y32F, A100N; VL unmutated (antibody, V domains shown)
VH: B1 VH with K28R, F103N
VL: B1 VL with K35N
notes: IgG format
B22: hJovi-1 variant IgG, VH T28K, Y32F, A100N, N103S; VL unmutated (antibody, V domains shown)
VH: B1 VH with F103S
VL: B1 VL with K35N
notes: IgG format
B23: hJovi-1 variant IgG, VH Y27F, T28K, Y32F, A100N; VL unmutated (antibody, V domains shown)
VH: B1 VH with Y27F, F103N
VL: B1 VL with K35N
notes: IgG format
B24: hJovi-1 variant IgG, VH T28K, Y32F, A100N, Y102L, N103W; VL N35R (antibody, V domains shown)
VH: B1 VH with Y102L, F103W
VL: B1 VL with K35R
notes: IgG format
B25: hJovi-1 variant IgG, VH V2R, T28K, Y32F, A100N; VL unmutated (antibody, V domains shown)
VH: B1 VH with V2R, F103N
VL: B1 VL with K35N
notes: IgG format
B26: hJovi-1 variant IgG, VH T28K, Y32F, A100N, N103W; VL unmutated (antibody, V domains shown)
VH: B1 VH with F103W
VL: B1 VL with K35N
notes: IgG format
B27: hJovi-1 variant IgG, VH T28K, Y32F, A100N, N103M; VL unmutated (antibody, V domains shown)
VH: B1 VH with F103M
VL: B1 VL with K35N
notes: IgG format
B28: hJovi-1 variant IgG, VH T28K, Y32F, A100N, N103Q; VL unmutated (antibody, V domains shown)
VH: B1 VH with F103Q
VL: B1 VL with K35N
notes: IgG format
B29: hJovi-1 variant IgG, VH T28K, Y32F, A100N, Y102F, N103M; VL N35K (antibody, V domains shown)
VH: B1 VH with Y102F, F103M
VL: B1 VL
notes: IgG format
B30: hJovi-1 variant IgG, VH T28K, Y32F, A100N, N103M; VL N35M (antibody, V domains shown)
VH: B1 VH with F103M
VL: B1 VL with K35M
notes: IgG format
B31: anti-TRBC2 scFv-Fc (T28K, Y32F, A100N, Y102L, N103M in VH; N35R in VL of hJovi-1) (Fc fusion)
chain: QVQLVQSGAEVKKPGASVKVSCKASGYKFTGFVMHWVRQAPGQGLEWMGFINPYNDDIQSNERFRGRVTMTRDTSISTAYMELSRLRSDDTAVYYCARGNGLMFDGAYRFFDFWGQGTMVTVSSGGGGSGGGGSGGGGSDIVMTQSPLSLPVTPGEPASISCRSSQRLVHSNGRTYLHWYLQKPGQSPRLLIYRVSNRFPGVPDRFSGSGSGTDFTLKISRVEAEDVGVYYCSQSTHVPYTFGQGTKLEIKRSDPRGPTIKPCPPCKCPAPNLLGGPSVFIFPPKIKDVLMISLSPIVTCVVVDVSEDDPDVQISWFVNNVEVHTAQTQTHREDYNSTLRVVSALPIQHQDWMSGKEFKCKVNNKDLPAPIERTISKPKGSVRAPQVYVLPPPEEEMTKKQVTLTCMVTDFMPEDIYVEWTNNGKTELNYKNTEPVLDSDGSYFMYSKLRVEKKNWVERNSYSCSVVHEGLHNHHTTKSFSRTPGK
notes: Multivalent format

Molecular target: T1, Recombinant purified TRBC2 (human, UniProt A0A5B9 1-129, limits assumed)
T1 construct: Construct not described (may be a soluble TCR carrying TRBC2); also called TCR beta constant region 2; soluble recombinant biotinylated TRBC2
T1 sequence (A0A5B9 1-129 limits assumed): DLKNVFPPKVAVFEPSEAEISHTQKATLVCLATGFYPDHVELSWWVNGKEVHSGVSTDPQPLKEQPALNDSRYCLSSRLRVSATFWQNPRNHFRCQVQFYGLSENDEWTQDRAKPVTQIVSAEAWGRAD
Test: SPR, IgG captured on anti-human Fc, TRBC2 as analyte
Description: (§1) A series S CM5 sensor chip was immobilised via amine coupling, with an anti-human Fc capture antibody to a density of 9000-10000 RU, using a Biacore T200 instrument. HBS-P+ buffer was used as running buffer in all experimental conditions. The test anti-TRBC2 antibodies (Table 1) were captured on flow cells 2, 3 and 4 to a density of 100-300 RU. Recombinant purified TRBC1 or TRBC2 at known concentrations were used as the ‘analyte’ and injected over the respective flow cells with 150s contact time and 300s dissociation at 30 μl/minute of flow rate. In each experiment, flow cell 1 was unmodified and used for reference subtraction. A ‘0 concentration’ sensorgram of buffer alone was used as a double reference subtraction to factor for drift. Data were fit to a 1:1 Langmuir binding model. Since a capture system was used, a local Rₘₐₓ parameter was used for the data fitting in each case.

| Kd | Binder |
| --- | --- |
| 294 nM | B1 |
| 1900 nM | B2 |
| 1320 nM | B3 |
| 646 nM | B4 |
| 968 nM | B5 |
| 302 nM | B6 |
| 1080 nM | B7 |
| 416 nM | B8 |
| 339 nM | B9 |
| 2610 nM | B10 |
| 6950 nM | B11 |
| 2700 nM | B12 |
| 3060 nM | B13 |
| 1720 nM | B14 |
| 90.3 nM | B15 |
| 270 nM | B16 |
| 172 nM | B17 |
| 192 nM | B18 |
| 202 nM | B19 |
| 883 nM | B20 |
| 582 nM | B21 |
| 983 nM | B22 |
| 1210 nM | B23 |
| 1510 nM | B24 |
| 1600 nM | B25 |
| 425 nM | B26 |
| 83.6 nM | B27 |
| 484 nM | B28 |
| 909 nM | B29 |
| 131 nM | B30 |

Molecular target: T2, Recombinant purified TRBC1 (human, UniProt P01850 1-129, limits assumed)
T2 construct: Construct not described (may be a soluble TCR carrying TRBC1); also called TCR beta constant region 1; soluble recombinant biotinylated TRBC1
T2 sequence (P01850 1-129 limits assumed): as the sequence (A0A5B9 1-129 limits assumed) above, with K3N, N4K, K9E, Y36F counted along it
Test: SPR, IgG captured on anti-human Fc, TRBC1 as analyte
Description: as §1

| Kd | binding result | Binder |
| --- | --- | --- |
| 881 nM |  | B1 |
|  | no binding | B2 |
| 11300 nM |  | B3 |
| 2810 nM |  | B4 |
| 7910 nM |  | B5 |
| 1280 nM |  | B6 |
| 4660 nM |  | B7 |
| 2020 nM |  | B8 |
| 1580 nM |  | B9 |
|  | no binding | B10 |
| 74300 nM |  | B11 |
| 18900 nM |  | B12 |
| 21000 nM |  | B13 |
|  | no binding | B14 |
| 290 nM |  | B15 |
| 1060 nM |  | B16 |
| 733 nM |  | B17 |
| 1000 nM |  | B18 |
| 929 nM |  | B19 |
| 2400 nM |  | B20 |
| 1440 nM |  | B21 |
| 3540 nM |  | B22 |
| 4480 nM |  | B23 |
|  | no binding | B24 |
| 5110 nM |  | B25 |
| 1650 nM |  | B26 |
| 376 nM |  | B27 |
| 1770 nM |  | B28 |
| 9310 nM |  | B29 |
| 648 nM |  | B30 |

Molecular target: T1, Recombinant purified TRBC2
Test: SPR, biotinylated TRBC captured on CAP chip, antibody injected; t1/2=ln 2/kd
Experimental: To test multivalent interaction of scFv-Fc and scFv-COMP antibody formats, a series S CAP chip was immobilised with Biotin capture reagent to 2500-5000 RU. Soluble recombinant biotinylated TRBC1 and TRBC2 were captured on flow cells 3, in independent experimental cycles, to a density of 90-110 RU. Purified anti-TRBC2 scFv-Fc or scFv-COMP antibodies were injected over the flow cell with 150s contact time and 300s dissociation at 30 μl/minute of flow rate. On flow cell 1, biotinylated protein was omitted and used for reference subtraction. A ‘0 concentration’ sensorgram of buffer alone was used as a double reference subtraction to factor for drift. Data were fit to a 1:1 Langmuir binding model. Since a capture system was used, a local Rmax parameter was used for the data fitting in each case. Off-rate value was determined, and half-life calculated according to: t1/2=ln 2/kd.

| half-life | Binder |
| --- | --- |
| 16.2 s | B31 |
